The values below come from US20240343823A1 (Ablynx, published 2024).

The term EC50 denotes the concentration that produces a half-maximal response. Usually koff stands for the first-order rate constant of dissociation.

Experiment [1] concerns the target T1, human GPC3 on tumor cell lines (HepG2, Huh-7, NCI-H661, MKN-45, NCI-H23, BxPC-3, NCI-H292) (human, UniProt P51654 25-554).
T1 construct: Endogenous GPC3 of human cancer cell lines; also called GPC3 on HepG2; GPC3 on Huh-7
The experiment can be described thus: flow cytometry on HepG2 cells. (Flow cytometry measures light scatter and fluorescence of single cells or particles in a stream.)

Experiment [2] deals with T1, human GPC3 on tumor cell lines (HepG2, …). The experiment can be described thus: flow cytometry on Huh-7 cells.
The target of experiment [3] is T2, cyno GPC3 expressed on CHO Flp-In cells (cynomolgus).
T2 construct: range 3-559; On cells; also called cyGPC3 CHO; CHO-cGPC3
The experiment is described as follows: flow cytometry on CHO Flp-In cyno GPC3 cells.

Experiment [4] addresses T3, cyno Glypican-3 delta-GPI-HIS, in-house produced (cynomolgus).
T3 construct: range 3-559; also called cyno GPC3; cyGPC3
The experiment can be described thus: SPR ProteOn XPR36, periplasmic extract over coated cyno GPC3. On the procedure:
(§1) Off-rates of ISVDs were determined on a ProteOn XPR36 instrument (Bio-Rad Laboratories, Inc.). ProteOn GLC Sensor Chips were coated with cyno Glypican-3 AGPI-HIS (in-house produced; accession number P51654; Q3-R358; S359-H559) and human GPC3 (R&D Systems, cat nr. 2119-GP). Periplasmic extracts were diluted 1:10 in ProteOn PBS Tween buffer (PBS, pH 7.4, 0.005% Tween 20 (167-2720, BioRad)). Experiments were carried out at 25° C. Data obtained was double referenced by reference lane subtraction as well as subtraction of a blank buffer injection. Processed curves were used for off-rate analysis based on the Langmuir dissociation (off-rate analysis) model.

Experiment [5] concerns the target T4, recombinant human Glypican-3 (R&D Systems, cat nr. 2119-GP) (human, UniProt P51654 25-559).
T4 construct: Bought protein; also called human GPC3; hGPC3
The experiment can be described thus: SPR ProteOn XPR36, periplasmic extract over coated human GPC3. How it is done:
as §1

Experiment [6] concerns the target T2, cyno GPC3 expressed on CHO Flp-In cells. The experiment is described as follows: flow cytometry, periplasmic extract on CHO Flp-In cyno GPC3 against parental CHO. On the procedure:
(§2) Periplasmic extracts were screened for human and cyno GPC3 binding in flow cytometry using CHO Flp-In cells (Invitrogen cat nr. K6010) expressing either human GPC3 (accession number P51654; Q25-R358, S359-H580) or cyno GPC3 (accession number P51654; Q3-R358; S359-H559), respectively. In brief, 1×10⁵ cells were incubated in 1:5 diluted periplasmic extracts for 30 min at 4° C., and then washed 3 times. As a control, the parental CHO Flp-In cell line (Invitrogen cat nr. K6010) was included. […] Samples were washed and resuspended in FACS Buffer (D-PBS (Gibco) with 10% FBS (Sigma) and 0.05% sodium azide (Merck)) supplemented with 5 nM TOPRO3 (Molecular Probes, cat nr T3605). Cell suspensions were then analyzed on a FACS Array. Gating was set on live, intact cells using forward/side scatter and TOPRO3 channel fluorescence parameters.

Experiment [7] concerns the target T5, human GPC3 expressed on CHO Flp-In cells (human, UniProt P51654 25-554).
T5 construct: On cells; Q25-R358, S359-H580; also called hGPC3 CHO; CHO huGPC3
The experiment is described as follows: flow cytometry, periplasmic extract on CHO Flp-In human GPC3 against parental CHO. How it is done:
as §2

The target in experiment [8] is T1, human GPC3 on tumor cell lines (HepG2, …). The experiment can be described thus: cell-based or functional assay.
Experiment [9] has the same target. The experiment can be described thus: flow cytometry on HepG2 and Huh-7 cells. On the procedure: as §2
Variants were evaluated for binding to HepG2, Huh-7 and CHO Flip-In cyno-GPC3 cells by flow cytometry, as described in Example 1.

Experiment [10] addresses T2, cyno GPC3 expressed on CHO Flp-In cells. The experiment is described as follows: flow cytometry on CHO Flp-In cyno GPC3 cells. This is another data set of the same source.
Experiment [11] has as its target T1, human GPC3 on tumor cell lines (HepG2, …). The experiment is described as follows: cell-based or functional assay. The source holds these as a separate data set.
For experiment [12] the target is unchanged. The experiment can be described thus: cell-based or functional assay. This is another data set of the same source.
Experiment [13] shares this target. The experiment can be described thus: cell-based or functional assay. This is another data set of the same source.
For experiment [14] the target is unchanged. The experiment is described as follows: cell-based or functional assay. This is another data set of the same source.
Experiment [15] has the same target. The experiment is described as follows: flow cytometry on HepG2 cells. The source holds these as a separate data set.
The target is the same in experiment [16]. The experiment can be described thus: flow cytometry on Huh-7 cells. The source holds these as a separate data set.
Experiment [17] addresses T2, cyno GPC3 expressed on CHO Flp-In cells. The experiment can be described thus: flow cytometry on CHO Flp-In cyno GPC3 cells. The source holds these as a separate data set.

Where two headings read alike, the source gives them in different places.

B1: A0226015A08 (VHH)
VHH: EVQLVESGGGLVQAGGSLRLSCVASGSIFRSVFSSSTMEWYRQPPGKKRELVARIAPGDGTNYGALYADSVKGRFTISRDDAKKTVDLQMNSLKPEDTGVYFCASGVAWGQGTLVTVSS
notes: Parental ISVD; also called A02260015A08; anti-GPC3 ISVD
As for B1, the concentration for a half-maximal effect (EC50) stood at 7.5 nM in experiment [1], 6.6 nM in experiment [2] and 7.8 nM in experiment [3]. Further, the dissociation rate constant (koff) was found to be 0.0004 s⁻¹ in [4] and 0.00033 s⁻¹ in experiment [5]. Moreover, in [6], the “Ratio MFI cyGPC3 CHO/CHO” value stood at 13.7. In experiment [7], the “Ratio MFI hGPC3 CHO/CHO” value was 58.2.

B2: A022600031 (bispecific antibody)
chain: DVQLVESGGGLVQPGGSLRLSCVASGDVHKINFLGWYRQAPGKEREKVAHISIGDQTDYADSAKGRFTISRDESKNMVYLQMNSLKPEDTAVYFCRAFSRIYPYDYWGQGTLVTVSSGGGGSGGGGSGGGGSGGGGSGGGGSGGGGSGGGGSEVQLVESGGGLVQAGGSLRLSCVASGSIFRSVFSSSTMEWYRQPPGKKRELVARIAPGDGTNYGALYADSVKGRFTISRDDAKKTVDLQMNSLKPEDTGVYFCASGVAWGQGTLVTVSSGGGGSGGGGSGGGGSGGGGSGGGGSGGGGSGGGGSEVQLVESGGGVVQPGGSLRLSCAASGLTFSSYAMGWFRQAPGKERERVVSISRGGGYTYYADSVKGRFTISRDNSENTVYLQMNSLRPEDTALYYCAAARYWATGSEYEFDYWGQGTLVTVSS
For B2, the “IC50 (M), Incucyte human TDC HepG2-Nuclight green assay” value in experiment [8] stood at 1.5e-08 M.

B3: A022600027 (other)
chain: DVQLVESGGGLVQPGGSLRLSCVASGDVHKINFLGWYRQAPGKEREKVAHISIGDQTDYADSAKGRFTISRDESKNMVYLQMNSLKPEDTAVYFCRAFSRIYPYDYWGQGTLVTVSSGGGGSGGGGSGGGGSGGGGSGGGGSGGGGSGGGGSEVQLVESGGGLVQPGGSLRLSCVASGFTFSSFAMTWVRRPPGKGLEWVATITNGGVTSYRDSVKGRFTISRDNAKNTLYLEMTSLNPEDTAVYICANARRTGPRAPTDIGSYRGQGTLVTVSSGGGGSGGGGSGGGGSGGGGSGGGGSGGGGSGGGGSEVQLVESGGGVVQPGGSLRLSCAASGLTFSSYAMGWFRQAPGKERERVVSISRGGGYTYYADSVKGRFTISRDNSENTVYLQMNSLRPEDTALYYCAAARYWATGSEYEFDYWGQGTLVTVSS
As to B3, in experiment [8], the “IC50 (M), Incucyte human TDC HepG2-Nuclight green assay” value was determined as 8.6e-09 M.

B4: A022600314 (VHH)
VHH: EVQLVESGGGVVQPGGSLRLSCAASGSIFRSVFSSSTMEWYRQAPGKKRELVARIAPGEGTYYGALYADSVKGRFTISRDNAKNTVYLQMNSLRPEDTALYYCASGVAWGQGTLVTVSS
notes: also called A0226000314
B4: the results for the EC50 in experiment [1], in [2] and in experiment [3] were 16 nM, 9.3 nM and 12 nM, respectively. For the same molecule, the “fold decrease in binding potency against parental A0226015A08” value in [9] and in [10] was less than 2 fold in each case.

B5: A022600168 (other)
chain: DVQLVESGGGVVQPGGSLRLSCVASGYVHKINFYGWYRQAPGKEREKVAHISIGDQTDYADSAKGRFTISRDESKNTVYLQMNSLRPEDTAAYYCRALSRIWPYDYWGQGTLVTVSSGGGGSEVQLVESGGGLVQPGGSLRLSCVASGFTFSSFAMTWVRRPPGKGLEWVATITNGGVTSYRDSVKGRFTISRDNAKNTLYLEMTSLNPEDTAVYICANARRTGPRAPTDIGSYRGQGTLVTVSSGGGGSGGGGSGGGGSGGGGSGGGGSGGGGSGGGGSEVQLVESGGGLVQPGGSLRLSCVASGSIFRSVFSSSTMEWYRQPPGKKRELVARIAPGDGTNYGALYADSVKGRFTISRDDAKKTVDLQMNSLKPEDTGVYFCASGVAWGQGTLVTVSSGGGGSGGGGSGGGGSGGGGSGGGGSGGGGSGGGGSEVQLVESGGGVVQPGGSLRLSCAASGFTFRSFGMSWVRQAPGKGPEWVSSISGSGSDTLYADSVKGRFTISRDNSKNTLYLQMNSLRPEDTALYYCTIGGSLSRSSQGTLVTVSSA
On to B5, for which, in [11], the “HepG2 on Incucyte IC50” value is 0.367 nM, the “HepG2 on Incucyte Max % killing” value came out at 103%, the “Huh7 on xCELLigence IC50” value was found to be 0.198 nM and the “Huh7 on xCELLigence Max % killing” value was found to be 107%. In experiment [12], the “HepG2 on Incucyte IC50” value was determined as 0.367 nM, the “HepG2 on Incucyte Max % killing” value was 103%, the “Huh7 on xCELLigence IC50” value came to 0.198 nM and the “Huh7 on xCELLigence Max % killing” value worked out at 107%. In addition, in experiment [13], the “HepG2 on Incucyte IC50” value is 0.367 nM, the “HepG2 on Incucyte Max % killing” value amounted to 103%, the “Huh7 on xCELLigence IC50” value came to 0.198 nM and the “Huh7 on xCELLigence Max % killing” value stood at 107%. In [14], the “IC50 (M), xCELLigence human TDC assay, Hep-G2” value came out at 7.3e-11 M; the “IC50 (M), xCELLigence human TDC assay, Huh-7” value was 2.4e-11 M; the “IC50 (M), xCELLigence human TDC assay, NCI-H661” value is 1.4e-10 M.

B6: A022600345 (VHH)
VHH: EVQLVESGGGVVQPGGSLRLSCAASGFTFSSFAMTWVRRPPGKGLEWVATITNAGVTSYADSVKGRFTISRDNAKNTLYLQMNSLRPEDTALYICANARRTGPRAPTDIGSYRGQGTLVTVSS
B6: the EC50 in experiment [15] worked out at 0.391 nM; in [16], 0.276 nM; in [17] it was 0.15 nM. Moreover, the “fold increase in binding potency against parental A0226018C08” value in experiment [9] and in experiment [10] was 2 fold throughout.

B7: A022600351 (VHH)
VHH: EVQLVESGGGVVQPGGSLRLSCAASGFTFSSFAMTWVRRPPGKGLEWVATITNKGVTSYADSVKGRFTISRDNAKNTLYLQMNSLRPEDTALYICANARRTGPRAPTDIGSYRGQGTLVTVSS
notes: also called A0226000351
Consider B7, for which the EC50 in experiment [15] was determined as 0.431 nM; in [16] it was 0.477 nM; in experiment [17] it was 0.21 nM. In addition, the “fold increase in binding potency against parental A0226018C08” value in experiment [9] and in experiment [10] was 2 fold in each case.

B8: A0226018C08 (VHH)
VHH: EVQLVESGGGLVQPGGSLRLSCVASGFTFSSFAMTWVRRPPGKGLEWVATITNGGVTSYRDSVKGRFTISRDNAKNTLYLEMTSLNPEDTAVYICANARRTGPRAPTDIGSYRGQGTLVTVSS
notes: Parental ISVD; also called A02260018C08; anti-GPC3 ISVD
As for B8, the EC50 in experiment [15] is 0.915 nM; in [16], 0.696 nM; in experiment [17] it was 0.49 nM. Further, the koff in experiment [4] worked out at 0.0011 s⁻¹; in [5], 0.00097 s⁻¹. In addition, in [6], the “Ratio MFI cyGPC3 CHO/CHO” value was 19.9. For the same molecule, the “Ratio MFI hGPC3 CHO/CHO” value in experiment [7] turned out to be 159.
